According to the supplement of paper PMC9170038:

Tests used:
[1] = system: MS2 coat protein; test: apparent KD of MS2 coat protein; designed switch direction (-1 OFF switch, 1 ON switch): 1; higher = weaker reporter binding
In short: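 Designed RNA switches with common flanks were transcribed on Illumina chips by stalled E. coli RNA polymerase and titrated with SNAP-549-labelled MS2 coat protein, from 0.7 or 1.5 nM doubling to 3 µM, in Tris-HCl pH 7.5 buffer with KCl, MgCl2, BSA, DTT, tRNA and Tween-20. Steps lasted 0.8–1.5 h (lowest) to 10–20 min (highest). Titrations ran without input, with 200 uM small-molecule ligand, or with an oligonucleotide input. Normalised cluster fluorescence was curve-fitted, and apparent KD is the per-design median over clusters.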

[2] = system: MS2 coat protein; test: apparent KD of MS2 coat protein; higher = weaker reporter binding; details: Eterna round: R107
In short: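 SNAP-549-labelled MS2 coat protein was titrated onto designed RNA switches that had been transcribed on-chip from Illumina sequencing clusters. Amounts doubled from 0.7 or 1.5 nM to 3 µM in 100 mM Tris-HCl pH 7.5, 80 mM KCl, 4 mM MgCl2, with constant ligand or without. Apparent KD is the median per design of normalised cluster binding-curve fits.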

[3] = input ligand: microRNA oligo, concentration not stated
[4] = Eterna round: R95, input ligand: FMN 200 uM
[5] = Eterna round: R95, input ligand: microRNA oligo, concentration not stated
[6] = Eterna round: R95, input ligand: none
[7] = input ligand: theophylline 20 uM
[8] = input ligand: tryptophan 2.4 mM
[9] = input ligand: theophylline 2 mM

Row | Sequence | apparent KD of MS2 coat protein ([1]; input ligand: FMN 200 uM) [nM] | apparent KD of MS2 coat protein [1, 3] [nM] | apparent KD of MS2 coat protein ([1]; input ligand: none) [nM] | apparent KD of MS2 coat protein ([2]; input ligand: arginine 13.2 mM) [nM] | apparent KD of MS2 coat protein [2, 7] [nM] | further results
1 | AAGAUGGUUGUAGGAUAUCCACCACUGAAGGGUGGAGAAGGGCACUCCAACAUGAGGAUCACCCAUGUACUACAAGUAGCAUCG [Eternabot solution 26] (Eterna round: R96, puzzle: Same State NG 1) | 267 | 188 | 240 |  |  | 
2 | UUGCGGGCUUGAGGAUAUUGAGUACAUAUGUUUAACAUGAGGAUCACCCAUGUGGGUUGCGGUGUCGAGAAGGUGGCUUCCUGC [salish99_SSNG2_r04_814] (Eterna round: R96, puzzle: Same State NG 2) | 99.2 | 76.7 | 91.5 |  |  | 
3 | UGUUGAAACUGAGGAUAUGGCGUGUGACGAAUGCCAGAAGGUAGUAGGAGCAACAUGAGGAUCACCCAUGUCCGGCGCAGACCC [Eternabot solution 16] (Eterna round: R96, puzzle: Same State NG 1) | 85.6 | 61.3 | 71.3 |  |  | 
4 | UAUCCAUAGAUAGGAUAUUAGUGAACAUGAGGAUCACCCAUGUUUUGCUUGGUUUUAAGCUAAUCUGAGAAGGAUCUUGAUGAA [SameState NG2 #6] (Eterna round: R96, puzzle: Same State NG 2) | 31.5 | 33.3 | 41.6 |  |  | 
5 | UCUUGGUUUUUGCUCGUUUUUUGUGUUGAACAUGAGGAUCACCCAUGUAUUGUACAGUCCGGUUUAGUGAUGGUCCG [JMF 58] (puzzle: Sensor for hsa-mir-208a) |  |  |  |  |  | apparent KD of MS2 coat protein [1, 4]: 40.2 nM; apparent KD of MS2 coat protein [1, 5]: 32.6 nM; apparent KD of MS2 coat protein [1, 6]: 45 nM
6 | UACAAUCUAUCUGAGGAUAUCAUGAUAAUAACAUGAGGAUCACCCAUGUGCAGGAAAACUGCAUAUGAGAAGGCAGAUAGAUUGA [Mat - Same State 2 - Mod - D13] (puzzle: Same State 2) |  |  |  |  |  | apparent KD of MS2 coat protein [1, 4]: 89.9 nM; apparent KD of MS2 coat protein [1, 5]: 93.1 nM; apparent KD of MS2 coat protein [1, 6]: 417 nM
7 | GGCGAACAGGCUAACAUGAGGAUCACCCAUGUGGACUCAUGUUAGGAUAUCGGGAAGGAGGAAACCGAGAAGGGACGGUGAGCU [AK SSNG3-V2-45] (Eterna round: R96, puzzle: Same State NG 3) | 191 | 18 | 34.1 |  |  | 
8 | GGAAUAUGAUGUUACAUGAGGAUCACCCAUGUAGUAAUAACUAAGGAUAUCUGUUAUGAUUAAUAAGAGAAGGUAGGAUCAUAA [AK SSNG3-V2-9] (Eterna round: R96, puzzle: Same State NG 3) | 23.6 | 19 | 25.8 |  |  | 
9 | AAAAUGCGGGAAGGAUAUGGGAAAGGAAGUGUACCAGAAGGUCUCGCGGCCAAGGACAUGAGGAUCACCCAUGUGAACGCCCGA [PowerStrip SSNG 1.9] (Eterna round: R96, puzzle: Same State NG 1) | 98.1 | 41 | 59.1 |  |  | 
10 | UAGCGAUCUCGUUAAAGGAUCCCAUUUGAUACCAGAGAACUUUGCCUCCCUUGGCAGCAAGUGACAUGAGGAUCACCCAUGUUGA [theeternabot_exclusion_MS2_Theo_A_3] |  |  |  | 16.4 | 20 | apparent KD of MS2 coat protein [2, 8]: 16.4 nM
11 | UCGUAUGCGGCGGCCGCCACUCGCGGAUAACGAGAGCUUAACAUGAGGAUCACCCAUGUGUCAUGGAGGACCGGGCCCAUUCACA [popmullin] |  |  |  | 30.4 | 40.2 | apparent KD of MS2 coat protein [2, 9]: 37.5 nM
12 | GCAUCCUAGUCGGCCGCCACUGCAACAUGAGGAUCACCCAUGUACUGCACAUGGGAAUGCAGUAGCAGGACCGGGACUAGGAUGC [(T1)-(M1)-(M2)-(T)''-(M)'-(T)'-(T2)_Design2_2/18/17] |  |  |  | 109 | 268 | apparent KD of MS2 coat protein ([2]; input ligand: none): 294 nM; apparent KD of MS2 coat protein [2, 9]: 249 nM; apparent KD of MS2 coat protein [2, 8]: 48.4 nM
13 | GGAACAUGAGGAUCACCCAUGUAAUCACGACGAGGACCGGUACGGCCGCCACUCGUAUUCACGCAAGGUAGAGGAAUACGUAGGC [theeternabot_exclusion_MS2_Trp_A_2] |  |  |  | 15.4 | 17.6 | apparent KD of MS2 coat protein [2, 9]: 14.3 nM
